Side chains are listed from the residue outwards. Ends that are not written are not given here. Peptide text beside a SMILES is read from it. * marks the point of attachment. X1 = CC(=O)N[C@@H](CSSCCCC(=O)O[C@@H](C(=O)O[C@H]1C[C@@]2(O)[C@@H](OC(=O)c3ccccc3)[C@@H]3[C@]4(OC(C)=O)CO[C@@H]4C[C@H](O)[C@@]3(C)C(=O)[C@H](OC(C)=O)C(=C1C)C2(C)C)[C@@H](NC(=O)c1ccccc1)c1ccccc1)C(=O)*; Paclitaxel(2'-OCO(CH2)3S) = CC(=O)O[C@H]1C(=O)[C@@]2(C)[C@H]([C@H](OC(=O)c3ccccc3)[C@]3(O)C[C@H](OC(=O)[C@H](OC(=O)CCCS*)[C@@H](NC(=O)c4ccccc4)c4ccccc4)C(C)=C1C3(C)C)[C@]1(OC(C)=O)CO[C@@H]1C[C@@H]2O; buSS = disulfanylbutanoate linker
Experiments:
[1] = tested on: co-culture of KB-3-1 and KB-V1 cervical cancer cells; settings: co-culture KB-3-1 and KB-V1, 48 hours
Method: Cell viability was determined by SRB assay after 48 hours incubation with the appropriate drug-containing media. […] Data are given as mean±s.d. (n=3).
Cell Culture. KB-3-1 and KB-V1 ovarian cancer cells were cultured in DMEM (Invitrogen) containing 10% fetal bovine serum (FBS, Invitrogen) and 1% of antibiotics (Invitrogen), and 1 μg/mL vinblastine was added for KB-V1 to maintain its multidrug resistance. The two cell types were incubated at 37° C. in an Oasis humidified incubator with a 5% CO2 atmosphere (Caron, Marietta, Ohio).
Cytotoxicity Protocol. KB-3-1, KB-V1 or their co-culture (1:1) were seeded onto 96-well plate (5×10^3 cells/well) and allowed to attach overnight. […] Medium containing the same concentration of PXL or/and CPT in the form of free drugs or conjugates (dCPT-Sup35 or dPXL-Sup35) were also used to incubate the cells, with non-treated cells (solvent only) as the control group. After 48 hours incubation, the cell viability was determined using the SRB method according to the manufacturer's protocol (TOX-6, Sigma, St. Louis, Mo.).

[2] = tested on: PXL-resistant KB-V1 cervical cancer cells; assay: Cytotoxicity study of dual drug amphiphiles by SRB; type: cell-based; settings: KB-V1, 48 hours
Method: (§1) Both cell lines are sensitive to CPT. […] (n=3).
(§2) Cytotoxicity Study. The activity of the synthesized conjugates to prohibit proliferative ability was assessed through the determination of a dose-response relationship against PXL-sensitive and -resistant cervical cancer cell lines—KB-3-1 and KB-V1, respectively. Both cell lines were individually incubated for 48 hours with the conjugates alone or in combination, either individually to determine their sensitivity to the conjugates (FIGS. 46 a-b) and also as a co-culture to mimic a heterogeneous tumor (FIG. 46 c). […] This antagonistic behavior has been previously observed, and is suspected to arise from an up-regulation of anti-apoptosis genes on co-treatment with CPT that would inhibit the mechanism by which PXL exerts its cytotoxicity.

[3] = tested on: PXL-sensitive KB-3-1 cervical cancer cells; assay: Cytotoxicity study of dual drug amphiphiles by SRB; type: cell-based; settings: KB-3-1, 48 hours
Method: as §1, §2

[4] = PXL release study in PBS buffer at 37° C.; type: physicochemical
Method: FIG. 32 depicts the PXL-buSS-Tau release curve in PBS buffer under 37° C.
PXL release studies were carried out at 100 μM and 5 μM concentrations in PBS buffer at 37° C. (FIG. 32). […] After 2 hrs, around 70% of the PXL-buSS-Tau was cleaved by glutathione at 5 μM while only 40% paclitaxel was released at 100 μM, again illustrating the protective effect that self-assembly into nanostructures has upon the biodegradable linker.

[5] = tested on: human breast cancer MCF-7; type: cell-based
Method: (§3) To evaluate anti-tumor efficacy, the cytotoxicity of PXL-buSS-Tau towards human breast cancer MCF-7, non-small cell lung cancer A549, and human prostate cancer PC-3 FLU cell lines was determined (FIG. 33).

[6] = tested on: non-small cell lung cancer A549; type: cell-based, human
Method: as §3

[7] = tested on: human prostate cancer PC-3 FLU; assay: Cytotoxicity of PXL-buSS-Tau by SRB assay; type: cell-based; settings: 48 hours
Method: as §3

[8] = Critical micellization concentration of CPT drug amphiphiles by a fluorescence method; type: physicochemical; settings: 10 mM sodium phosphate
Method: FIGS. 5A-5C depicts the fluorometric determination of the CMC values for mCPT-buSS-Tau (a), dCPT-buSS-Tau (b) and qCPT-buSS-Tau (c) in 10 mM sodium phosphate.
The critical micellization concentrations of mCPT-buSS-Tau, dCPT-buSS-Tau and qCPT-buSS-Tau were determined to be 207 nM, 74 nM and 53 nM, respectively, by a fluorescence method (FIG. 5). These very low values are in the range of macromolecular amphiphiles and are an important property of these conjugates. A high value would lead to rapid dissociation of the nanostructure when diluted upon introduction into the bloodstream, whereas a low value would impart greater stability to the assembly during circulation.

## CC[C@@]1(O)C(=O)OCc2c1cc1n(c2=O)Cc2cc3ccccc3nc2-1 [CPT, camptothecin]
[1]
  activity: moderate activity

## CC(=O)O[C@H]1C(=O)[C@@]2(C)[C@H]([C@H](OC(=O)c3ccccc3)[C@]3(O)C[C@H](OC(=O)[C@H](O)[C@@H](NC(=O)c4ccccc4)c4ccccc4)C(C)=C1C3(C)C)[C@]1(OC(C)=O)CO[C@@H]1C[C@@H]2O [PXL, paclitaxel, reference compound]
[2]
  sensitivity of cells / activity: no activity

## CC(=O)N[C@@H](CSSCCCC(=O)O[C@@H](C(=O)O[C@H]1C[C@@]2(O)[C@@H](OC(=O)c3ccccc3)[C@@H]3[C@]4(OC(C)=O)CO[C@@H]4C[C@H](O)[C@@]3(C)C(=O)[C@H](OC(C)=O)C(=C1C)C2(C)C)[C@@H](NC(=O)c1ccccc1)c1ccccc1)C(=O)NCCCC[C@H](NC(=O)[C@H](CSSCCCC(=O)O[C@@H](C(=O)O[C@H]1C[C@@]2(O)[C@@H](OC(=O)c3ccccc3)[C@@H]3[C@]4(OC(C)=O)CO[C@@H]4C[C@H](O)[C@@]3(C)C(=O)[C@H](OC(C)=O)C(=C1C)C2(C)C)[C@@H](NC(=O)c1ccccc1)c1ccccc1)NC(C)=O)C(=O)NCC(=O)N[C@@H](CC(N)=O)C(=O)N[C@@H](CC(N)=O)C(=O)N[C@@H](CCC(N)=O)C(=O)N[C@@H](CCC(N)=O)C(=O)N[C@@H](CC(N)=O)C(=O)N[C@@H](Cc1ccc(O)cc1)C(=O)N[C@@H](CCCCN)C(=O)N[C@@H](CCCCN)C(N)=O [dPXL-Sup35] (Ac-C(Paclitaxel(2'-OCO(CH2)3S))K(X1)GNNQQNYKK-NH2)
[3]
  sensitivity of cells: nano-molar sensitivity
[2]
  sensitivity of cells / activity: no activity

## PXL-buSS-Tau (Ac-CGVQIVYKK; also: PXL-buSS conjugate, attachment site not given here)
[4]; 5 μM, after 2 hrs, PBS, 37° C., glutathione
  PXL-buSS-Tau cleaved by glutathione: around 70%
[4]; 5 μM, presence of glutathione
  release at 5 μM compared with 100 μM: much faster release than that of 100 μM
[4]; 100 μM, after 30 minutes, presence of glutathione
  release of paclitaxel: Significant release of paclitaxel
[4]; 100 μM, after 2 hrs, PBS, 37° C., glutathione
  paclitaxel released: 40%
[5]
  cytotoxic effect: strong cytotoxic effect
[6]
  cytotoxic effect: strong cytotoxic effect
[7]
  cytotoxic effect: strong cytotoxic effect

## mCPT-buSS-Tau: one camptothecin linked via disulfanylbutanoate (buSS) linker to cysteine-functionalized Tau peptide CGVQIVYKK (C([buSS-camptothecin])GVQIVYKK; not fully specified (C-terminus))
[8]
  critical micellization concentration: 207 nM
